Experimental data: patent publication US20240343803A1 (SHANDONG SIMCERE BIOPHARMACEUTICAL, published 2024)
Residue numbers refer to the chain shown, from its start. Like-named read-outs stand apart in the source and are kept apart here.

T1: Full-length human TIGIT on CHO-K1 cells (CHO-K1 human TIGIT) (human, UniProt Q495A1 22-244)
T1 construct: NCBI XP_024309156.1; the entry includes the signal peptide (limits not recoverable); The strain (high, medium, low) is named under assay; also called high expression strain 1D2; medium expression strain 2D10
T1 sequence: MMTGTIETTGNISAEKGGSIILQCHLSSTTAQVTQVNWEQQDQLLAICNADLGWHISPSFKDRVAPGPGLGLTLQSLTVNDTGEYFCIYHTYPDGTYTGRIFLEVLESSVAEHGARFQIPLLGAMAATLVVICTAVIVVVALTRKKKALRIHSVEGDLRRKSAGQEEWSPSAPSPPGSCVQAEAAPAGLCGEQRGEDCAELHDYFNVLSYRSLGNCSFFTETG

T2: Fusion protein of extracellular domain of human TIGIT and mouse IgG2a Fc fragment (human TIGIT ECD-mFc) (human)
T2 construct: The entry includes the signal peptide (limits not recoverable) and the mouse IgG2a Fc
T2 chain: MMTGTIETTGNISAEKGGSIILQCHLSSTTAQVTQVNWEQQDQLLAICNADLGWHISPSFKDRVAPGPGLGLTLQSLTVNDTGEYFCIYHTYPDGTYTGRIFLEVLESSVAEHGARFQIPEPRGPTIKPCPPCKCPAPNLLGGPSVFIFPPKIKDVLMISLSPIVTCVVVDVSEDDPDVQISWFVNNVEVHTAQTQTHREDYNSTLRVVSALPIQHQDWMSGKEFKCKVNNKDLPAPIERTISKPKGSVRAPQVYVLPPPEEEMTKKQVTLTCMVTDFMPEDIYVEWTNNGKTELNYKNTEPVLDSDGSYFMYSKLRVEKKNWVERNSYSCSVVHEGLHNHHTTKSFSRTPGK

T3: Fusion protein of extracellular domain of human TIGIT and His-tag (human TIGIT ECD-his) (human)
T3 chain: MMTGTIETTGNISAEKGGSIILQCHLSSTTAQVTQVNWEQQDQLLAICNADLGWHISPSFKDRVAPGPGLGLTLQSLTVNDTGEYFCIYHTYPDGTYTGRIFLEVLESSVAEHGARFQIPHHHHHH

T4: TIGIT on human PBMCs stimulated by SEA (human, UniProt Q495A1 22-244)
T4 construct: whole, on cells
T4 sequence (looked up): T1 sequence

B1: RG6058-hIgG1 (antibody, V domains shown)
VH: EVQLQQSGPGLVKPSQTLSLTCAISGDSVSSNSAAWNWIRQSPSRGLEWLGKTYYRFKWYSDYAVSVKGRITINPDTSKNQFSLQLNSVTPEDTAVFYCTRESTTYDLLAGPFDYWGQGTLVTVSS
VL: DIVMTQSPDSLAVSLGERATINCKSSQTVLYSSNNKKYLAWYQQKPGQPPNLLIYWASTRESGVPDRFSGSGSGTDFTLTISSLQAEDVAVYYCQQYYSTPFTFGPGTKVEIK
notes: Control anti-TIGIT antibody, human IgG1; also called Roche RG6058
B2: TIGIT-CHI-005 (antibody, V domains shown)
VH: QVQLQQSGAELVRPGTSVKVSCKASGYAFTNYLIEWVKQRPGQGLEWIGVINPGSGGTNYKEKFKGKATLTADKSSSTAYMQLSSLTSEDSAVYFCARGEYFFFDYWGQGTTLTVSS
VL: DIVMTQSHKFMSTSVGDRVSITCKASQHVSNGVAWYQHKPGQSPKLLIYSASYRYTGVPDRFTGTGSGTDFTFTISSVQAEDLAVYYCQQHYNTPHTFGGGTKLEIK
notes: Human-mouse chimeric antibody
B3: TIGIT-002-H2L3 (antibody, V domains shown)
VH: EVQLQESGPGLVKPSETLSLTCAVSGYSITSDSWNWIRQPPGKKLEWIGYISYSGNTYYNPSLKSRVTISRDTSKNQFSLKLSSVTAADTAVYYCARLDFSNYGGAVDYWGQGTTVTVSS
VL: DIVMTQSPDSLAVSLGERATINCKASQNVRTAVAWYQQKPGQSPKLMIYSASYRYTGVPDRFSGSGSGTDFTLTISSLQAEDVAVYYCQQYYTTPWTFGGGTKVEIK
notes: Humanized anti-TIGIT antibody
B4: TIGIT-002-H1L3 (antibody, V domains shown)
VH: B3 VH with K44G
VL: B3 VL
notes: Humanized anti-TIGIT antibody
B5: TIGIT-002-H3L3 (antibody, V domains shown)
VH: B3 VH with I48M, V67I
VL: B3 VL
notes: Humanized anti-TIGIT antibody
B6: TIGIT-CHI-002 (antibody, V domains shown)
VH: EVQLQESGPGLAKPSQTLSLACSVTGYSITSDSWNWIRKFPGNKLEYMGYISYSGNTYYNPSLKSRISITRDTSKNQFYLQLNSVTTEDTATYYCARLDFSNYGGAVDYWGQGTSVTVSS
VL: DIVMTQSHTFMSTSVGDRVSITCKASQNVRTAVAWYQQKPGQSPKLMIYSASYRYTGVPDRFTGSGSGTDFTFTISSVQAEDLAVYYCQQYYTTPWTFGGGAKLEIQ
notes: Human-mouse chimeric antibody

Tests used:
[1] = molecular target: T5, Fusion protein of extracellular domain of cynomolgus monkey TIGIT and mouse IgG2a Fc fragment (cynomolgus … (cynomolgus monkey)); assay: ELISA, cynomolgus monkey TIGIT ECD-mFc
T5 construct: The entry includes the signal peptide (limits not recoverable) and the mouse IgG2a Fc

[2] = molecular target: T1, Full-length human TIGIT on CHO-K1 cells …; assay: FACS; CHO-K1 human TIGIT high expression strain
Procedure, shortened: (§1)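 Binding to CHO-K1 cells expressing full-length human or cynomolgus monkey TIGIT, measured by flow cytometry. Cells at 2×10⁵/50 μL in 1% BSA-PBS were mixed 1:1 with antibodies serially diluted 3-fold over 12 points from 80 nM and held at 4° C for 60 min. EC50 came from the binding curves.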

[3] = molecular target: T1, Full-length human TIGIT on CHO-K1 cells …; assay: FACS; CHO-K1 human TIGIT low expression strain
Procedure, shortened: as §1

[4] = molecular target: T2, Fusion protein of extracellular domain …; assay: ELISA, human TIGIT ECD-mFc
[5] = molecular target: T2, Fusion protein of extracellular domain …; assay: FACS; blocking of TIGIT ECD-mFc binding to CHO-K1 CD112 cells
Method: The collected CHO-K1 CD112 cells were washed once with PBS (Hyclone, CAT #SH30256) and resuspended to 2×10⁵/40 μL with 1% BSA-PBS. The anti-TIGIT humanized antibodies were diluted to 600 nM with 1% BSA-PBS (diluted by 2.5-fold serial dilution for 12 concentration points). The TIGIT ECD-mFc was diluted with 1% BSA-PBS to 6 μg/mL. The 40 μL cells were then mixed with 40 μL diluted antibodies and 40 μL diluted TIGIT ECD-mFc, and then incubated at 4° C. for 60 minutes. […] The cell samples were washed twice with PBS, resuspended to 100 μL/well with 1% BSA-PBS and then analyzed by flow cytometry (BD, Canto II). […] (f) The binding activity of anti-TIGIT humanized antibodies to human PBMCs detected by FACS.

[6] = molecular target: T6, Full-length cynomolgus monkey TIGIT on CHO-K1 cells (CHO-K1 cynomolgus monkey TIGIT) (cynomolgus monkey); assay: FACS; CHO-K1 cynomolgus monkey TIGIT
T6 construct: NCBI XP_015300911.1
T6 sequence (chain, as listed by the source limits assumed): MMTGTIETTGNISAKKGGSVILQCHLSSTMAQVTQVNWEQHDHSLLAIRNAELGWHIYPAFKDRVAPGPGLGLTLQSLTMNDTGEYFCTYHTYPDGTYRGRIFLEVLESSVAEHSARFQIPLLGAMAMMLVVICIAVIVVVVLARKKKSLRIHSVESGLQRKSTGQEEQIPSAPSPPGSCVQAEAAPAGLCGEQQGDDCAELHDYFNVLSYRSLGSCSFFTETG
Procedure, shortened: as §1

[7] = molecular target: T1, Full-length human TIGIT on CHO-K1 cells …; assay: FACS; blocking of Bio-CD155-His binding to CHO-K1 human TIGIT cells
Procedure, shortened: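 Flow cytometry blocking assay in CHO-K1 human TIGIT cells (2×10⁵/40 μL in 1% BSA-PBS). Cells were mixed with equal volumes of antibody (12-point 3-fold dilution from 210 nM) and biotinylated CD155-His (diluted to 3 μg/mL), then held at 4° C for 60 min. Bound ligand was detected with APC-streptavidin (1:1700, 4° C, 40 min) on a BD Canto II. IC50 came from the inhibition curves.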

[8] = molecular target: T3, Fusion protein of extracellular domain …; assay: BIAcore
[9] = molecular target: T2, Fusion protein of extracellular domain …; assay: FACS; blocking of TIGIT ECD-mFc binding to CHO-K1 CD155 cells
[10] = molecular target: T4, TIGIT on human PBMCs stimulated by SEA; assay: FACS; binding to SEA-stimulated human PBMC
Method: The fresh human PBMCs (AllCells, PB004-C) were adjusted to a density of 5×10⁵/mL, added with SEA (Toxin Technology, Inc., CAT: AT101) to 100 ng/ml, and cultured at 37° C. with 5% CO₂ for 3 days. The cells were collected 3 days later, washed once with PBS (Hyclone, CAT #SH30256), added with Fc Block (BD, 564220) and then incubated at 4° C. for 10 minutes. After washing twice with PBS, the PBMCs were resuspended to 2×10⁵/50 μL with 1% BSA-PBS. The humanized antibodies were diluted to 80 nM with 1% BSA-PBS (diluted by 3-fold serial dilution for 12 concentration points). The 50 μL cells were then mixed with 50 μL diluted antibodies, and then incubated at 4° C. for 60 minutes. […] After washing twice with PBS, the cell samples were resuspended with 1% BSA-PBS, 100 μL/well and then analyzed by flow cytometry (BD, Canto II).

[11] = molecular target: T1, Full-length human TIGIT on CHO-K1 cells …; assay: FACS; CHO-K1 human TIGIT medium expression strain
Procedure, shortened: as §1

[12] = molecular target: T3, Fusion protein of extracellular domain …; assay: BIAcore; reference itself
[13] = molecular target: T7, Fusion protein of extracellular domain of human TIGIT and human IgG1 Fc fragment (human TIGIT ECD-hFc) (human); assay: blocking of TIGIT ECD-hFc binding to CHO-K1 CD155 cells
T7 construct: The entry includes the signal peptide (limits not recoverable) and the human IgG1 Fc
T7 sequence (chain, as listed by the source limits assumed): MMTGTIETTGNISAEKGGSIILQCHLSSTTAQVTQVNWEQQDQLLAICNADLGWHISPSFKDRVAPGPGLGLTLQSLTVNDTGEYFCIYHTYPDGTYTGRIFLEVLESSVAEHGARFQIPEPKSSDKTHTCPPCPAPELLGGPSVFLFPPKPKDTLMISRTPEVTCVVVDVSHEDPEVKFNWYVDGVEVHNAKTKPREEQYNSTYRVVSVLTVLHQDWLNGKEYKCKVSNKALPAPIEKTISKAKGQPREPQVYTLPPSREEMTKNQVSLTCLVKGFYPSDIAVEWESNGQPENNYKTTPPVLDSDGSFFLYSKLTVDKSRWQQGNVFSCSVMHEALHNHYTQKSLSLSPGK
Procedure, shortened: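 IC50 values come from inhibition curves in a cell-based ELISA using CHO-K1 CD155 cells. Antibodies premixed for 0.5 h with human TIGIT ECD-hFc (working concentration 30 ng/mL) were added to the fixed, blocked cells for 1.5-2 h at 37° C. Bound TIGIT was then detected with HRP secondary antibody and TMB at OD450 nm.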

[14] = molecular target: T2, Fusion protein of extracellular domain …; assay: ELISA, human TIGIT ECD-mFc
Procedure, shortened: (§2)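 Plates blocked with 5% skim milk-PBS at 37° C for 2-4 h. Test antibodies applied as a 12-point 3-fold series from 13 nM for 1.5-2 h at 37° C. Read-out: HRP secondary (1:5000, 1 h, 37° C), TMB colour for 7-10 min at room temperature, acid stop, absorbance at OD450 nm.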

[15] = molecular target: T1, Full-length human TIGIT on CHO-K1 cells …; assay: cell binding, CHO-K1 human TIGIT high expression strain
Procedure, shortened: (§3)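 Binding was measured by flow cytometry after a 60-minute, 4° C incubation of the antibodies with 2×10⁵ CHO-K1 cells displaying full-length human or cynomolgus monkey TIGIT. Antibody titration: 12 points, threefold serial dilution from 80 nM, in 1% BSA-PBS.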

[16] = molecular target: T6, Full-length cynomolgus monkey TIGIT on …; assay: cell binding, CHO-K1 cynomolgus monkey TIGIT
Procedure, shortened: as §3

[17] = molecular target: T5, Fusion protein of extracellular domain …; assay: ELISA, cynomolgus monkey TIGIT ECD-mFc; remark: listed apart in the source
Procedure, shortened: as §2
Target sequence in this assay (chain, as listed by the source limits assumed): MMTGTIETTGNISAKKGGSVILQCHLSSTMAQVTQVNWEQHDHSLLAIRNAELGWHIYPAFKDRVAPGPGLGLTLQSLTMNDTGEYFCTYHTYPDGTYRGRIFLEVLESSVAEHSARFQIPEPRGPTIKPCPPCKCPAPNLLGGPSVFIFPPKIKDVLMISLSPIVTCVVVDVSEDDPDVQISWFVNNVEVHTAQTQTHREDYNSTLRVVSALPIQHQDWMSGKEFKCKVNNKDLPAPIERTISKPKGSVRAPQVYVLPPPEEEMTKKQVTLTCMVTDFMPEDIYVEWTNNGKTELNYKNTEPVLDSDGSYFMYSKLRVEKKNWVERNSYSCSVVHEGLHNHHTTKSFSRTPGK

[18] = molecular target: T3, Fusion protein of extracellular domain …; assay: BIAcore
[19] = molecular target: T3, Fusion protein of extracellular domain …; assay: BIAcore; KD ratio to TIGIT-CHI-002

Row | Binder | Fold change vs chimeric antibodies (KD) [12] [fold] | IC50 [13] [nM] | EC50 [14] [nM] | EC50 [15] [nM] | EC50 [16] [nM] | EC50 [17] [nM] | Kd [18] [nM] | koff [18] [s⁻¹] | kon [18] [M⁻¹ s⁻¹] | Fold change vs chimeric antibodies (KD) [19] [fold] | also measured
1 | B1 |  |  |  |  |  |  |  |  |  |  | EC50 [1]: 0.0486 nM; EC50 [2]: 0.794 nM; EC50 [3]: 0.481 nM; EC50 [4]: 0.0393 nM; IC50 [5]: 6 nM; EC50 [6]: 2.29 nM; IC50 [7]: 0.334 nM; Kd [8]: 0.156 nM; koff [8]: 0.000135 s⁻¹; kon [8]: 866000 M⁻¹ s⁻¹; IC50 [9]: 0.584 nM; EC50 [10]: 0.285 nM; EC50 [11]: 0.652 nM
2 | B2 | 1 | 0.36 | 0.019 | 0.026 | 0.0265 | 0.0165 | 0.0276 | 0.000113 | 4.76e+06 |  | 
3 | B3 |  | 0.54 | 0.0159 | 0.0278 | 0.15 | 0.0337 | 0.266 | 0.00107 | 4.03e+06 | 6.3 | 
4 | B4 |  | 0.395 | 0.0157 | 0.0253 | 0.143 | 0.0511 | 0.271 | 0.000973 | 3.59e+06 | 6.44 | 
5 | B5 |  | 0.339 | 0.0173 | 0.0361 | 0.0919 | 0.022 | 0.188 | 0.000852 | 4.52e+06 | 4.47 | 
6 | B6 | 1 | 0.564 | 0.0161 | 0.0218 | 0.0372 | 0.02 | 0.0421 | 0.0003 | 7.13e+06 |  | 
